Experiment [1] deals with recombinant hexa-his-streptavidin (UniProt P22629). The experiment can be described thus: non-denaturing SDS-PAGE; purified and refolded protein on SDS-PAGE under non-denaturing against denaturing conditions.
The target of experiment [2] is TLM-core protein (2xTLM-HA-HBV core with strep-tag III in the spike tip), assembled to TLM-carrier capsid (hepatitis B virus) (UniProt P03146). The experiment can be described thus: SPR; Biacore T200; TLM-carrier capsid (TLM-core protein) immobilised on a CM5 chip; streptavidin injected at five concentrations (4.7-75.7 nM) or streptavidin-Ova at six concentrations (1.9-62.5 nM); fitted with the heterogeneous ligand and the bivalent analyte models (1:1 model fitted poorly). A general note: Surface plasmon resonance follows binding to a sensor surface in real time, without labels.
UniProt P03146, sequence (P03146 whole entry): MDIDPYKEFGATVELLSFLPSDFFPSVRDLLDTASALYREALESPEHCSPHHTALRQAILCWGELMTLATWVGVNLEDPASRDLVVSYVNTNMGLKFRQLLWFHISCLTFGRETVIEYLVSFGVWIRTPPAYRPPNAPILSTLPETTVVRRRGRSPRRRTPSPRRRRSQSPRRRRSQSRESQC

Experiment [3] deals with streptavidin-Ova fusion protein (streptavidin, hexa-his tag, ovalbumin). The experiment can be described thus: non-denaturing SDS-PAGE; purified and refolded protein on SDS-PAGE under non-denaturing against denaturing conditions.
Experiment [4] addresses TLM-core protein (2xTLM-HA-HBV core with strep-tag III in the spike tip), assembled to TLM-carrier capsid (hepatitis B virus) (UniProt P03146).

What is called stoichiometry N is a count of units in the complex or per binding partner.

Consider “recombinant hexa-his-streptavidin (from UniProt P22629 25-183) (natural protein)”, for which the stoichiometry N in experiment [1] stood at 4. Also, in experiment [2], the KD2 (heterogeneous ligand model, set 2, strong interaction) came to 4.74 nM; the Ka1 (on-rate, bivalent analyte model, step 1) was found to be 146000 M^- s^−1; the Ka2 (on-rate, bivalent analyte model, step 2) is 8.16e-05 RU^- s^-; the Ka2 (on-rate, heterogeneous ligand model, set 2, strong interaction) was determined as 397000 M^- s^−1. Also, in experiment [2], the Kd1 (off-rate, bivalent analyte model, step 1) came out at 0.0213 s⁻¹; the Kd2 (off-rate, bivalent analyte model, step 2) stood at 0.00126 s⁻¹; the Kd2 (off-rate, heterogeneous ligand model, set 2, strong interaction) is 0.00188 s⁻¹.

Regarding “streptavidin-Ova fusion protein (streptavidin, hexa-his tag, ovalbumin)”, the stoichiometry N in experiment [3] was found to be 4. The substance further displayed an IFN-γ secreted (ELISA, 72 h) by OT-I CD8+ T-cells co-cultured with BMDCs: Ova-loaded TLM-carrier capsid compared with free streptavidin-Ova in experiment [4] greater than 10 fold. In experiment [2], this substance came in with a KD2 (heterogeneous ligand model, set 2, strong interaction) of 1.97 nM; a Ka1 (on-rate, bivalent analyte model, step 1) of 94200 M^- s^−1; a Ka2 (on-rate, bivalent analyte model, step 2) of 0.000428 RU^- s^-; a Ka2 (on-rate, heterogeneous ligand model, set 2, strong interaction) of 356000 M^- s^−1. Moreover, in experiment [2], the Kd1 (off-rate, bivalent analyte model, step 1) turned out to be 0.0104 s⁻¹; the Kd2 (off-rate, bivalent analyte model, step 2) turned out to be 0.000823 s⁻¹; the Kd2 (off-rate, heterogeneous ligand model, set 2, strong interaction) is 0.0007 s⁻¹; the dissociation half-life (t 1/2) of the strong binding interaction is 16.5 min.
